According to the domain aggregation screens of Martell et al. (2025):

Assay: soluble fraction after stress (log2 fold change); higher = more stays soluble; pooled small domains, quantitative proteomics
Conditions: stress: 75 degC
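Also: 20 min heating vs room temperature control held 20 min.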

Row | Sequence | soluble fraction (log2)
1 | HMATEWLSSKEAAQRLGVSAATLYAYVSRGLLRSEGSSGQRERRYRADDVAQLRRRREVGRKAESIAASTL | -1.31
2 | HMKDPSFELMSVAESFYRSGNVDHAVYALEKYLEVYADGDYTDRAHDLLSQARKGLTYPHGYPPLQI | -1.26
3 | HMAPPDFTTFMRNYQDMVYSTAVRLIGNETQAEDIAQEVFIKAHAHFENLRTSPSAGGWLKTVATNLSIN | -1.2
4 | HMDLPRQSQYQALVVSYARRAGIDEAEEDLLAAFEVWRMRHNHDLAGGRTARDFILAYLPQYQRHKE | -1.98
5 | HMADLNFHQQIRSLPPEQQEILLLRFGQELTLRQIAQVTGVPLRTVQSRLRAALKKLKSQLEKEE | -0.696
6 | HMIGGASVFKQFLPLADKMLLTLIHSEFEGDTYFPVFSEKEWLLQESSSLLSATGYQLSFQTYIR | 0.0107
7 | HMDGEFINLKNRAGTEIEARILNYQNGQVKLERKDGVTFVVSISMFDAKSVIAINHKIAEIIDT | -2.28
8 | HMSISSSEAARSAVASSGGTVLGVSKASHGGYKAWAVRIQRADGSVVTGYVDRASGTVYDWVVNQAA | -0.663
9 | HMAANKIDEDRNTELLQVIQNKFPDADAATKKSVKEIMKEHDIPNFKNADDIPTAVLEQIVKVLNQ | -0.378
10 | HMAQLSDDEQAIIDTITRRGDATMSELIASVNVSTPRLMSMLIDMEFRSLITALPGGRYQIRLIN | -1.54
11 | HMSVLQGLIESFKAGDRNLYEVAERLNVTEPFLAEALKDYRARFPKGVQVDNFWISFRPYLTIAEV | -1.17
12 | HMIYKLTLLRDLPEAKAGFDFYLRGGLASHDGEEWFSWVTREPIYARLYWLYVEKREEWVLVEETDI | -4.51
13 | HMTKYKEIVDQLRTNIYEGVFPALSKLPEQTALAKRFQTSRMTIQKALNQLKQEGLISTKRGHGTYVNSAT | -0.74
14 | HMAARKDLIAGEDAEGRLDAWLAAALDGEFSRNRVKALIEQGAVAINDVAVTEPKRKIRPGDRLSIVLPEP | 0.325
15 | HMILSTNFFRHIVPKEYQTSYGTMKKWLTDHNVIGTNSIPQGIGYRIPTQGLSSTFSFKVVDVLPDR | -0.986
16 | HMLTKAEEQVMDYLWKLEKAFVKDILDEFPEPKPAYTTVSTMVRILEKKGMVGYTAYGKNHQYYPL | -1.97
17 | HMDMTPEEFLAWARHKPFGDPFPKTQTVTFLVPLLGVSRTNIFTWISGKVNPSKTSLLLMEALKRENR | -0.493
18 | HMSAPQKWDGSLQDFIRFKQEAKTLMDNIPNKRLALNAILETISDGKMRKRLAKYDGPESALKSLELEFGN | -0.1
19 | HMIPDGKWKEDPISDGQKNFINSLIEQAIDAGQDELGAEAKKYLASGEATKGNASAMIDKLKSAL | 0.39
20 | HMTLDSLEKLSVNDLEKMLVNMPVGYKTIFLLSVIDEYSHKEIGELLGITPETSRSQLFRAIKWIKTNIF | -0.631
21 | HMIALLRLGTAPDIKAQAPLATILARHNGEMSAKDLWQRFGGEIDTFYAQLKTEVAHGWILEPT | -2.34
22 | HMDTIYPFNPNFIDDYKGYVLGLNTNEIDRLLKYRSKGNWINSAEDFKKVTGIDDALLNKLSKSFKFPDWL | -1.81
23 | HMENEDMTGDIRVIDYIRNVAEYIQTTKGQASASQMLDRFLFPPELQYTPLDKLSGGEQRRLYLLKVLMEA | 0.0433
24 | HMAKIDSRKALIDQLTTTFTRAQLEELITKNELSTDARFFLSQWNAKGWIRKTAKNVYEKLR | -0.969
25 | HMIKNKDRIQYTLAHRKAFRKIEKELLGYNTFRSLFHDLDKVFLYPFFDYKKVHNFHRNHAHH | 0.132
26 | HMRLPLYLALAQTLRQEIDAKQYKIGAHLPPEDQLVVKYGVSRHTVRQALQELKNEGLITSKAGIGTIVSS | -1.56

Row | Sequence | soluble fraction (log2)
27 | HMQIMVVDEADRMLDMGFIPDIERIFQLTPFTRQTLFFSATMAPEIERITDTFLHSPERIEVAR | -0.255
28 | HMTPEPVREALTFQEGRVFALAAKNMTNAEIAQSLSLKLKTVENYMSIIYQKLALKNRYELLVYARKSGV | -0.576
29 | HMKEAITVIGGKNNITFDASAQAEIGIYSMDGVQIQKKTISDNERIDLPAGMYVVTVKTGQANVSKVVVV | -0.553
30 | HMPPPVDLDKKGYKLRGIVLEDGRSAAFVFVPAEKRVVVLRENASGPVRLLETGMRRIRLQTPEGAGYLEL | -1.36
31 | HMTEYFTIESQEGERIDRYLSEELEDKSRSYIQKLIRDGHVLVDGKTVKAGYRLVAGDNIAITLPEI | -0.132
32 | HMTENIPPVKIEEMRQKWQDIVLLHGVTSGRKIKSGQATYIWLYRNDQNWLLTFNSRHLSQPQV | 0.232
33 | HMESTLNYSQFLSLVNEDRVAEVVIQGKELYVTDVNRSRFKVYAPPDPELIGLLRQKRVIISAKP | -0.56
34 | HMMESLGIRLKRLRKDKGLTQVELGKLSGVTGVTIGYWEKDLNEPGSKALSKLAQALGTTESYLLYGVS | -1.21
35 | HMTDLQNDIQAFNLKKMSYQHETKKLEEKRNPEKLEKLEQDIQALYLRIMENPNMRAFDSAKQALYLQIM | -0.948
36 | HMRTAELEVWDDDELNDVVKLIQNNHNINTLKLRFQENVSFSGLSLIAAVLTKQSIILEIEY | 0.235
37 | HMDSVVPNVVGMTAEKANKALTDAGLNVKITGATIGSGAVVHSQSIPAGTVTSKGTVVSIEMRFAAAEGD | -0.242
38 | HMQFQVHEIKGKEYYIHVVEKGNTLYAISRMYSVPIETLKEENPRLNTTELTIGDRLLIPLDEVKRKNIE | -0.833
39 | HMSQIANLLLSKNIKVNNQNIIYYETVLKYLPNNEKKEFFINAMKNNIYFTEEEIKNFGNIFN | -2.74
40 | HMGLKDTEVYMPDVRGLIEEEAQTKLKASFLTMKVSYTSSDEVKKGYVISQAPSADSVVLKGASVTVIVS | -2.56
41 | HMAGEDPANLELMRLMDEEYMEHPTKGVLGMVDFLRALGILTGPKRVRRLLRKMGIMAIYPK | 0.159
42 | HMDGVSLLFKLMETLPEQQKTILHLRDVEQLEFAEIAKITNTSQANVRVALSRARKKIKDLLLKQY | -2.52
43 | HMKIQEVDYSTFLNMLNEKSIAQVEIQDNQIAFNSNQEGNKQIYVTGRIEEDTELVNRLQAAGVQFSRV | 0.0484
44 | HMDQDIILHKVQPGDTLSKILLHYHSHQDRNKLQGLIAESMTANPFIKNPDLIYPGQLIQVPVPA | 0.0879
45 | HMDTITMAGERYAVSDLEKVSGDIFEKAFGFEIDPKTADAKDVLPTMPKSDVDLFKKLSGIKP | 0.401
46 | HMKDEGSLKVIGQMVVIGIPQSEAKRFANTYTVAQIRAALQYTQKRSEDKNASKLENVAAYFRQALVRNWG | -2.57
47 | HMHQKELLNLSYKEAKRYILDDFERVFFTNLLRKTGGNVSRAAQLAQVHRKNLYVKLTELGIDPRQFG | -1.53
48 | HMISADSSKVDTLVQVYSNMKPIQAAQVFEKMDEDLVIEILSRMKKKNAADILNLIKTEKAQVFAEKYA | -0.109
49 | HMEQINVTIQTEKGRIDKVLSEHLPNHSRSQIQQWLKEKHVTVNGETVRANYKVTAGDEIVVTIPEPEV | 0.546
50 | HMGDAATVFRDHYNINSAAQAQAALDRKEALWEQPNPWRDSDNREVFDWAAQTVKDRFDSGKYKPK | 0.626
51 | HMDPPYKDKNLHELLLKINNLNILKKDSVIILHRHKKQKEIFPSNFKIIEQKQYGISKIIFLTVL | -0.00334
52 | HMSDPSAQADALFNEGKTAEAFNVLLRLIEDSPEDQREDYRVRLLDLFRIAGNTPEVKAARRRLSALLM | -0.237

Row | Sequence | soluble fraction (log2)
53 | HMNGVPDMSPVPEGARNSTLHAWAFGRLKNHPDNETGIREDLFRRGHASGLQDAELDQIWKSIKRTL | 0.00545
54 | HMPESETIMVDVKGAVQSEGVYELPSTARVNDAIEAAGGFSDQADKKSVNLAQKLSDEAVVYVASQGENV | 0.76
55 | HMTVKKEIAKVKPTPLGWLRVRETPSLNGAEITKVNTGESYDVLDKETGWIKIKVSETVEGWVSDAYIELS | -0.319
56 | HMEVKVSGHLEAIGGVYHMKLSWIDDAGKRRRKSKSTGLAERGNKKRANDMLIDFMREQEAEIAASGD | -2.05
57 | HMSIGLEGFVGKLGISTSDLRPSGWGEFDAKKLFVVTEGEFVDRKEKIEILSVDGNRILVRKIS | -1.56
58 | HMDPERVVGQTGIVHLRIPARQHNTGKVMIEVQGSLREFDAVSEAEEIPTGTPILIVGRTEEGVFIAQPF | -0.286
59 | HMRQSDIAAAFRESILRSSKGFQYLHTRDFVTALRRRGIHLSEVEANSWIAREKTYFVDSALDHSENRLWI | -1.65
60 | HMRILDFPALKTEFDQLTKDLMAKYPEDGADRVRAIIETVLGPGKKVGALQPHQAELLAEVNTSLKANL | -0.0738
61 | HMLPGKEIPLPEFLREAFARNEPALENFQNLAPSYRRQYILWITSAKTPETVQKRISESIGLLKENRKLGM | -0.616
62 | HMYSQIGYGSSGSDVRKLQEILNGKGYNLSVDGQFGAKTKSAVRDYQSKNGLSVDGIVGVNTWGKLT | -0.0992
63 | HMQAPVVNHDLIKSFERQWREIKATAKGKVRSVNLSDARSILQSFLNTLQKGPGTDSLISSVQNELSLIA | -0.17
64 | HMVWNVEQIKRAVDQLPDGYRVVFTLYLFEGYDHREIADILGISEGGSKSQFNRAKSKLKEILTAMS | -2.19
65 | HMSPAPVSVDHLAFPTRDLEATDHFYSKVVGATLVHAESGYSPSWKSDYLLITYALPDGTRLSFFDWP | 0.105
66 | HMAPVTPEERAQAMEEYKAMVTIEGYTPPKNIIEQNYKRGLWSETMLNMAVTKGAITEAEKLEIMN | 0.463
67 | HMEAVIENAAIIKQNSGGYAVRATVNGVDLGMKPVERATALLYFSLTDKLEKDRLLSHTLQKTYGDLSA | -0.212
68 | HMLQQNRAVEAEQLARKGLSYAQSNIQQAALWRLVAEATEQQGKVDAALNAKNKAMQLEMAG | 0.248
69 | HMLKTADAIASVLLTRIQAGEFSAGRLPAERALSEAFSTTRITLREALGKLEAQGMIYRELRRGWFIA | -1.85
70 | HMVQIQDIAFSEFLNELEKGNILDVNIKGDLINGNMLDGKKFKTYAPYDPSLVEKLSKQNVTINVEPVN | 0.109
71 | HMNAYEVLIPNIYIGQRVDQTLASLFPQFSRSRLQNWLARGNLLIDGEIIKPKTKVLGGEQIIILDT | -1.72
72 | HMAKRTVPSVAEAIDNFRRQHRRMPSYAEMLPLLGVRSKSVVHFWINKLLENGLLEKDDKGYLTPGS | -0.134
73 | HMSKQQVRSILDDIPNIGETRRKALMRQFQSLEKIREASVGQLREVDGMNEKAAQSVYQFFHK | -0.0426
74 | HMAPDGIEDKEGWLKVLPMITNLSIQMQNLQARGMDYEHIRNLLHETLLRYDDRIDSNLFIPNV | -0.059
75 | HMTKINAPMPGNILDVKVNVGDHVEANQLVLMLEAMKMENEIFTPVAGTVVGVHVKKGDSVNSDDLLISI | -0.512
76 | HMNPETIHNDYKAFIKFAFSGLSYYSKVWNQNREMITPGLLETLWQKYRHLSIGEIETILEKIIKEG | -2.38
77 | HMDQILIHLKEGIDVTDVQPMLKALDLNVRMFNRDKNIIVISVLNRELDAIPQTIAALRPWEELFDSA | 0.171
